Assay results published in publication PMC9671922, “TOPOVIBL-REC114 interaction regulates meiotic DNA double-strand breaks” (Nature Communications, 2022).
Each block holds one binder with its values, some of them ahead of it.

Target: T1, REC114^15–159 (REC114 PH domain) (mouse, UniProt Q9CWH4 15-159)
T1 construct: Expressed from pProEXHTb; His-tag cleaved with TEV protease; source: E. coli BL21-Gold (DE3), purified (Ni2+ resin, TEV cleavage, second Ni2+ column, Superdex 200)
T1 sequence (looked up): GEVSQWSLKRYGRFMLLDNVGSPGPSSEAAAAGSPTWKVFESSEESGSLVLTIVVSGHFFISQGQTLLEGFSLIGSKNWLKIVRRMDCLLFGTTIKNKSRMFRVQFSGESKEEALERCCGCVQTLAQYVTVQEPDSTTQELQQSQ
Experiment: ITC; 25 °C, ITC200; 0.3-1.8 mM TOPOVIBL injected into 30-40 µM REC114 in the cell; 20 mM Tris pH 8.0, 100 mM NaCl, 5% glycerol, 5 mM β-mercaptoethanol; one-site model
Details: both partners purified

Kd: 1.2 µM
B1: 6xHis-TOPOVIBL C-terminal domain (CTD; 452–579) (domain or fragment, mouse, UniProt J3QMY9 452-579, looked up)
chain: SCDTEQHLTPEKNISAQNTKDQHKNIAQEFPEESIGQAENKRPKRGSPNHGREESRVLGSARDRSPPKSATRDRELTEVSLTARGSQTQAAHGRAQAAEAASPAGGLEDLWLQEVSNLSEWLNPGHRS
notes: Cloned in pProEXHTb; also called TOPOVIBL CTD; source: E. coli BL21Gold (DE3), purified (Ni-Chelating Sepharose, Superdex 200)

Kd: 3.3 µM
B2: TOPOVIBL^559–576 peptide (peptide)
peptide: EDLWLQEVSNLSEWLNPG
notes: also called TOPOVIBL peptide; TOPOVIBL C-terminal peptide
